Reference: patent publication US20230174626A1 (GlaxoSmithKline, published 2023)

B1: humanized 2C7 mAb (antibody, human IgG1, kappa, V domains shown)
VH: EVQLQQSGPELEKPGASVKISCKASGYSFTGYNMNWVKQSNGKSLEWIGNIDPYFGGTSYNQKFKGKATLTVDKSSSTAYMELKSLTSEDSAVYYCARHYGYFPWFAYWGQGTLVTVSA
VL: DIVLTQSPASLAVSLGQRATISCRASESVDSSGNSFMHWYQQKPGQPPKLLIYRASNLESGIPARFSGSGSRTDFTLTINPVGADDVATYYCQQSNEDPWTFGGGTKLEIKR
B2: humanized 26B6 mAb (antibody, human IgG1, kappa, V domains shown)
VH: EVQLVESGGGLVKPGGSLKLSCAASGFTITDYYIYWLRQTPEKKLEWVAAISDGGRYTDYPDSVKGRFTMSSDNAKTNLYLQMGSLQSDDTGMYYCARWASYGYHWYFDVWGAGTTVTVSS
VL: DIQMTQTTSSLSASLGDRVTISCSASQDISNYINWYQQKRDGTVKLLIYDSSSLHSGVPSRFSGSGSGTDYSLTISNLEPEDFATYFCQQYSNLPPTFGGGTNLEIKR
B3: humanized 23C2 mAb (antibody, human IgG1, kappa, V domains shown)
VH: DVQLQESGPGLVKPSQSLSLTCSVTGYSIKSGYYWNWIRQFPGNKLEWMGYISYGGDFTYNPSLKNRISITRDTSKNQFFLKLNSVTTEDTATYFCVREPNWESYFDIWGAGTTVTVSS
VL: DIQMTQSPASLSASVGETVTITCRASDNIYSYLTWYHQKQGKSPHLLVYNAKTLPEGVPLRFSGTGSGTQFSLKINSLQPEDFGIYFCLHDYGFPRTFGGGTILEVKR

Experiments:
[1] = target: HCMV glycoprotein H (gH) on TB40 virus (Human Cytomegalovirus (HCMV), TB40 virus); assay: cell-based or functional assay
[2] = target: ULs (UL128, UL130, UL131A of the HCMV Pentamer) on TB40 virus (Human Cytomegalovirus (HCMV), TB40 virus); assay: cell-based or functional assay

| Binder | IC50 (µg/ml), HCMV TB40 neutralization on ARPE-19 epithelial cells [1] | IC50 (µg/ml), HCMV TB40 neutralization on MRC-5 fibroblasts [1] | IC50 (µg/ml), HCMV TB40 neutralization on ARPE-19 epithelial cells [2] | IC50 (µg/ml), HCMV TB40 neutralization on MRC-5 fibroblasts [2] |
| --- | --- | --- | --- | --- |
| B1 | 0.0915 µg/mL | 0.53 µg/mL | – | – |
| B2 | – | – | 0.00407 µg/mL | > 10 µg/mL |
| B3 | – | – | 0.0031 µg/mL | > 10 µg/mL |
